Experimental data as given in US11365264B2, “Therapeutic methods and compositions” (INSTITUT PASTEUR, priority 2013, dated 2022).

Experiments:
purified HD CD4 T cells [1] = format: cell-based, human
purified HD CD4 T cells [2] = assay: Inhibition of IL-7-induced STAT5 phosphorylation and nuclear translocation; format: cell-based, human; settings: for effect on IL-7 induced nuclear translocation of phosphoSTAT5 (NT pSTAT5): CD4 T cells, IL-7 stimulation
Protocol: CD4 T-cells were purified by negative selection as already described (10) then activated with 2 nM recombinant glycosylated human IL-7 (Cytheris) or 40 μg PHA (Sigma). The confocal and STED microscopy used to study cell surface microdomains (MMD) and phospho-STAT5 cellular compartment distribution has already been described (10, 12). FCS analysis of protein diffusion at the surface of living cells has also been described (10, 12
Cells were then plated on polylysine-coated glass slides for 10 min then activated by 15 min IL-7 (2 nM) or not for control (NS), then fixed by PFA (PFA, 1.5%, 15 min at 37° C. followed by 15 min at room temperature) and permeabilization by methanol (90% at −20° C.). Cells were equilibrated one hour in PBS/SVF 5% then phospho-STAT5 was then stained by rabbit anti-STAT5 labelled with goat anti-rabbit-Atto642 and analyzed by FACS or STED microscopy.
VP plasma containing PLA2sGIB was first incubated with purified HD CD4 T cells (20 min) before stimulation by IL-7 (2 nM, 15 min.). Cells were then plated on polylysine coated glass slides before fixation by PFA (1.5%) and permeabilization by methanol (90% at −20° C.). pSTAT5 was then stained by rabbit anti-STAT5 labelled with goat anti-rabbit-Atto642 and analyzed by FACS or pulsed STED microscopy.

[3] = Enz Check PLA2 enzymatic assay; settings: for enzymatic activity (in words): recombinant PLA2 proteins produced in E. coli; for enzymatic activity of mutant vs recombinant porcine PLA2 GIB: each protein at 200 microM, FIG. 12
Protocol: The assay was performed with the Enz Check PLA2 assay kit from Life Technologies (ref.: E102147). […] The PLA2 activity is followed by the intensity increase of a single wavelength at 515 nm. PLA2 is detected by changes in the emission intensity ratio at 515/575 nm with excitation at 460 nm. Specific activities are expressed in amount of fluorescent substrate (U) obtained per second and per μg of enzyme in solution.
Each protein was used at 200 microM.

human GIBsPLA2 = target: T1, human GIBsPLA2 (Homo sapiens, UniProt P04054); assay: Inhibitor test: inhibition of IL-7-induced pSTAT5 nuclear translocation by viremic plasma or PLA2 GIB; format: cell-based; settings: 100 nM inhibitor, human PLA2G1B, FIG. 16
T1 construct: from tissue
T1 sequence (P04054 23-148): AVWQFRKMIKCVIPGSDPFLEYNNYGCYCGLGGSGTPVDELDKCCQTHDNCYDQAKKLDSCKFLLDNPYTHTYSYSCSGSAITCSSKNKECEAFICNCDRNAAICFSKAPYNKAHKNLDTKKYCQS

In the case of “commercial purified porcine GIBsPLA2: commercial purified porcine GIBsPLA2”, the “induction of abnormal membrane microdomains (aMMD)” value (purified HD CD4 T cells [1]) is reported as “induces abnormal MDM” and the “effect on IL-7 induced nuclear translocation of phosphoSTAT5 (NT pSTAT5)” value (purified HD CD4 T cells [2]) is reported as “block IL-7 pSTAT5 nuclear translocation”.

For “hPLA2 IB: recombinant human PLA2 IB (in E. coli)”, the Specific activity [3] was 10694.57 U/ug/s and the “enzymatic activity (in words)” value [3] was “potent enzymatic activity”.

For “hPLA2 IID: recombinant human PLA2 IID (E. coli)”, the Specific activity [3] was 445.21 U/ug/s and the “enzymatic activity (in words)” value [3] was “not active”.

With “mutant H48Q: porcine PLA2 GIB mutant, histidine at position 48 replaced by glutamine, produced in E. coli” the “induction of abnormal membrane microdomains (aMMD)” value (purified HD CD4 T cells [1]) was “lost the ability”, the “effect on IL-7 induced nuclear translocation of phosphoSTAT5 (NT pSTAT5)” value (purified HD CD4 T cells [2]) was “lost the ability” and the “enzymatic activity of mutant vs recombinant porcine PLA2 GIB” value [3] was “lost all of its enzymatic activity”. The “enzymatic activity of mutant vs recombinant porcine PLA2 GIB” value ([3]; listed as pPLA2GIB H48Q) was “Absence of activity”.

“pPLA2 IB: recombinant porcine PLA2 IB (in E. coli)” showed a Specific activity [3] of 10353.57 U/ug/s.

In the case of “ppPLA2 IB: Purified porcine pancreas PLA2 IB”, the Specific activity [3] is reported as 7694.31 U/ug/s.

B1: hPLA2 X: recombinant human PLA2 X (in E. coli) (protein, UniProt O15496 43-165, looked up)
Group 10 secretory …: GILELAGTVGCVGPRTPIAYMKYGCFCGLGGHGQPRDAIDWCCHGHDCCYTRAEEAGCSPKTERYSWQCVNQSVLCGPAENKCQELLCKCDQEIANCLAQTEYNLKYLFYPQFLCEPDSPKCD
In the case of B1, the Specific activity [3] is reported as 3318.97 U/ug/s and the “enzymatic activity (in words)” value [3] is reported as “very limited activity”.

B2: hPLA2 IIA: recombinant human PLA2 IIA (in E. coli) (protein, UniProt P14555 21-144, looked up)
Phospholipase A2, membrane …: NLVNFHRMIKLTTGKEAALSYGFYGCHCGVGGRGSPKDATDRCCVTHDCCYKRLEKRGCGTKFLSYKFSNSGSRITCAKQDSCRSQLCECDKAAATCFARNKTTYNKKYQYYSNKHCRGSTPRC
In the case of B2, the Specific activity [3] is reported as 214.93 U/ug/s and the “enzymatic activity (in words)” value [3] is reported as “not active”.

B3: IL-7: recombinant glycosylated human IL-7 (Cytheris) (protein, UniProt P13232 26-177, looked up)
Interleukin-7: DCDIEGKDGKQYESVLMVSIDQLLDSMKEIGSNCLNNEFNFFKRHICDANKEGMFLFRAARKLRQFLKMNSTGDFDLHLLKVSEGTTILLNCTGQVKGRKPAALGEAQPTKSLEENKSLKEQKKLNDLCFLKRLLQEIKTCWNKILMGTKEH
modifications: glycosylated
For B3, the MMD size (purified HD CD4 T cells [1]) was 90 nm, the “number of MMD per CD4 T cell” value (purified HD CD4 T cells [1]) was 300 MMD/cell and the “phospho-STAT5 found in the nucleus” value (purified HD CD4 T cells [2]; HD CD4 T cells, five minutes following IL-7 stimulation) was 50%.

B4: recombinant PLA2 soluble receptor: soluble murine receptor specific for PLA2 GIB, SEQ ID NO: 22 (protein)
chain: MVQWLAMLQLLWLQQLLLLGIHQGIAQDLTHIQEPSLEWRDKGIFIIQSESLKTCIQAGKSVLTLENCKQPNEHMLWKWVSDDHLFNVGGSGCLGLNISALEQPLKLYECDSTLISLRWHCDRKMIEGPLQYKVQVKSDNTVVARKQIHRWIAYTSSGGDICEHPSRDLYTLKGNAHGMPCVFPFQFKGHWHHDCIREGQKEHLLWCATTSRYEEDEKWGFCPDPTSMKVFCDATWQRNGSSRICYQFNLLSSLSWNQAHSSCLMQGGALLSIADEDEEDFIRKHLSKVVKEVWIGLNQLDEKAGWQWSDGTPLSYLNWSQEITPGPFVEHHCGTLEVVSAAWRSRDCESTLPYICKRDLNHTAQGILEKDSWKYHATHCDPDWTPFNRKCYKLKKDRKSWLGALHSCQSNDSVLMDVASLAEVEFLVSLLRDENASETWIGLSSNKIPVSFEWSSGSSVIFTNWYPLEPRILPNRRQLCVSAEESDGRWKVKDCKERLFYICKKAGQVPADEQSGCPAGWERHGRFCYKIDTVLRSFEEASSGYYCSPALLTITSRFEQAFITSLISSVAEKDSYFWIALQDQNNTGEYTWKTVGQREPVQYTYWNTRQPSNRGGCVVVRGGSSLGRWEVKDCSDFKAMSLCKTPVKIWEKTELEERWPFHPCYMDWESATGLASCFKVFHSEKVLMKRSWREAEAFCEEFGAHLASFAHIEEENFVNELLHSKFNWTQERQFWIGFNRRNPLNAGSWAWSDGSPVVSSFLDNAYFEEDAKNCAVYKANKTLLPSNCASKHEWICRIPRDVRPKFPDWYQYDAPWLFYQNAEYLFHTHPAEWATFEFVCGWLRSDFLTIYSAQEQEFIHSKIKGLTKYGVKWWIGLEEGGARDQIQWSNGSPVIFQNWDKGREERVDSQRKRCVFISSITGLWGTENCSVPLPSICKRVKIWVIEKEKPPTQPGTCPKGWLYFNYKCFLVTIPKDPRELKTWTGAQEFCVAKGGTLVSIKSELEQAFITMNLFGQTTNVWIGLQSTNHEKWVNGKPLVYSNWSPSDIINIPSYNTTEFQKHIPLCALMSSNPNFHFTGKWYFDDCGKEGYGFVCEKMQDTLEHHVNVSDTSAIPSTLEYGNRTYKIIRGNMTWYAAGKSCRMHRAELASIPDAFHQAFLTVLLSRLGHTHWIGLSTTDNGQTFDWSDGTKSPFTYWKDEESAFLGDCAFADTNGRWHSTACESFLQGAICHVVTETKAFEHPGLCSETSVPWIKFKGNCYSFSTVLDSRSFEDAHEFCKSEGSNLLAIRDAAENSFLLEELLAFGSSVQMVWLNAQFDNNNKTLRWFDGTPTEQSNWGLRKPDMDHLKPHPCVVLRIPEGIWHFTPCEDKKGFICKMEAGIPAVTAQPEKGLSHSIVPVTVTLTLIIALGIFMLCFWIYKQKSDIFQRLTGSRGSYYPTLNFSTAHLEENILISDLEKNTNDEEVRDAPATESKRGHKGRPICISP
modifications: soluble receptor
For B4, the “effect on activity of PLA2sGIB on NT of pSTAT5” value (human GIBsPLA2) was “significantly block the negative effect of PLA2sGIB on the NT of pSTAT5” and the “effect on activity of PLA2sGIB on NT of pSTAT5” value (human GIBsPLA2; listed as sMR) was “inhibits the activity of human PLA2G1B”.
